Laboratory results from patent US20230242651A1 (published 2023).

Target: human TNF (human, UniProt P01375 77-233)
Test: SPR, scFv; footnote: interference with SPR measurement

Sequence of human TNF (P01375 77-233 limits assumed): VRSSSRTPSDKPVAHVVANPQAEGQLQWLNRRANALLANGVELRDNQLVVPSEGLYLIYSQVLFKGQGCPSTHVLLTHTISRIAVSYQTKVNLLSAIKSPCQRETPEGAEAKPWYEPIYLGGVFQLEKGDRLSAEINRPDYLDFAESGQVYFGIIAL

B1: VK3/VH3 consensus λ-capped, TNF-specific scFv (scFv)
scFv: DIVLTQSPATLSLSPGERATLSCQASQSISDWLAWYQQKPGQAPRLLIYGASRLASGVPARFSGSGSGTDFTLTISSLEPEDFAVYYCQQGWSDSYVDNLFGGGTKLTVLGGGGGSGGGGSGGGGSGGGGSEVQLVESGGGLVQPGGSLRLSCAASGFSLSSGAMSWVRQAPGKGLEWVSVIISSGATYYASWAKGRFTISRDNSKNTLYLQMNSLRAEDTAVYYCARGGPDDSNSMGTFDPWGQGTLVTVSS
**Q.** B1 was tested. Which Kd did it give?
**A.** Its Kd is 1.82 nM.

**Q.** And the koff?
**A.** The koff was 0.000529 s⁻¹.

**Q.** What about the kon of the same binder?
**A.** The kon was 290000 M⁻¹ s⁻¹.
